Source: the supplement of paper PMC12636428

Tested on: Saccharomyces cerevisiae
Assay: transcriptional activation domain activity (GFP:mCherry ratio, weighted mean of sorted bins, harmonized to initial dataset scale) (arbitrary fluorescence ratio units); higher = stronger transcriptional activation
Conditions: beta-estradiol 1 µM; induction time 4 h
In short: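 Activation activity, the read-weighted mean of bin median fluorescence averaged across barcodes, was linearly mapped onto the scale of the initial dataset. It was measured for barcoded protein tiles fused to an estradiol-inducible synthetic transcription factor at URA3 in GFP-reporter yeast diploids. Cultures diluted 1:5 into SC with 1 uM beta-estradiol were held 4 hours at 30 °C, sorted into 8 bins by GFP:mCherry ratio, and barcode-sequenced, and tiles under 50 reads were discarded.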

| Sequence | transcriptional activation domain activity |
| --- | --- |
| SGDADEDGNGHGTHCSGTVAGKKYGVAKKAHVYAVKVLRSNGSGTMSDVVKGV | 42000 |
| MLFFFSGLLFFLSLLSLVFLFALFFIRISTPTIRFRLWFFLLLLLLFSLFLLF | 45500 |
| HNILHLFSICVFRYHMLYYDEVRYIWKRWRRRSTYWFFLNRYFNFFGNGAITV | 64600 |
| LLWFYFLFLFCIFCWWLRYASSLVPNICHIHVIHDLADAFMHIRFVLFISILS | 72300 |
| KEEAESEAEASAPKGKKGTVKKPAAAAKAKDVDEPKAKRGRPKKTVAKDEVEN | < 6570 |
| VFRLCLGDLFRPYGISLNVIRLMLMATGTDLDFYVPRSKWRQVLLFLRLASGY | 72200 |
| ALCSIAGLACFILFCFLRVRWPAMYAPRLNMKKHAPQPLPNSFLGWIVPVLRT | 67400 |
| EGEGEEEAVTLKKTKKGRGGEEEAAKKGKKKGDEEDPAWEEAAAKKGKKKGEE | 37800 |
| DDSAASHAESKEARDGANEADTSSTGGEADSALKESNTKAERRQDKKEEEASG | 34100 |
| SLQLLYFMPVRYYTYHKRGYHYFLADLCYFVNVLLLLSIWIFPNSRRLMISTY | 65100 |
| MTFLPFSLFAFLFRCLLFFLAIFRLRYALFLFLFFSFLYLYPFYLHILHIVAY | 52600 |
| IFVLDIIQVRCNYFFFLSFLFIWMRSMFFLCSNRLVALFLFYFSGSTLRVTIM | 51300 |
| AILLGEAYGYRILPFVPVWTIFATVNLAYAVCSTSWLLYWVYLVCCWPTLLIV | 55500 |
| LFHSVVSIYRLLFFFSVDHSAGVRFFFCFLFLPSLIFCIAFPISIISGFLVFF | 49600 |
| HGPMFHFSISNWVEGAKLAGHGNPTGHNPELILNNFRTPLGLLTAHLFKTMFP | 52200 |
| NGTPETHGESIDSKRPRACEACRGLKVKCEPDPTNPDGPCKRCTKANRNCVVT | 25800 |
| MVLLSKIVWVICGVTLVSTDFDHAQRRLRGSLLTSLTLYLLIVMCSRWSLVES | 72400 |
| RHLSIRLCEIGLIIFAHGLHVHNAYSHLYICLHVVTSRYLYGSHCMVCQLLFY | 75800 |
| MFGRPYCFGFVVYLFVGCFAVLSVVCSFFFFPLLPLLVVVILLKVVFSFVRAD | 29100 |
| MEASFYFSSSSFCSAFLFFYFFILFFWGGFPLFPSQLFLSLSLLFIHTLSLFP | 26700 |
| DARRLLSCVRMGFAFYASGCMSTSLILFFSFCLLLPPILTGYQILWLLCIILP | 68400 |

| Sequence | transcriptional activation domain activity |
| --- | --- |
| AAKGKAAAGGGTKKKGTAGAEAETPEMATPAPEGAPNAPAKKRAKKATAAAAA | 36400 |
| MIPLLSFYYYFYISTCKTELLFSPFIFYFLLFLYIYIKIYTYFLHTPFLLVFE | 47700 |
| IRLELGIIEDFFGLTLCMSKYLLYHYVISLKLSACFFAVHGYAPNGLDYPWVL | 55000 |
| LEVTQRGITPANTDYNSNPIDKCLVSDSFNESTTNLLRSLLHCLRILALTYHA | 36600 |
| LIVTALVWLFQASTEQFTFVALLMYRLKYPVRRVAWLLKFSAIQNLIPKFGFA | 61200 |
| DVEMLKGLALRNPLEEGEDEAASLSQYAVNRQILLTYVILKLKLIRGKCILFV | 35000 |
| MPRLCCSCCYTDSLYFMIIRDRFFWLLHNGIVVVSLISYIRCMMISSPLLVGH | 48400 |
| APPPREGGARGGRGGRGRGEFRGGEGRGRGEGRESRGGEGRGRGGEGRGEFRG | 25900 |
| TEGEPETPADGDEEEGGEAEAEGGEEKKEEEEGWGLPVKKKKGKKGKGSNDAT | 26900 |
| MRVCVTSLFFFPLSFFPILIKLFLLSHHLFPTSNPFSFVFSSFAPFLPAFSFI | 40900 |
| MAASDGPSPKKRKFARAVNTCAPCARRKVKCDRESHAPCSNCRKRRETALCEP | 9660 |
| VSSCCPFPLFLFFSFFLSFFLPFLLSSFLSITQSSWPPFHCPCQDTFPFSLPF | 28000 |
| MYVCVYIFGCYLFGFMIFVYFFPIYFFNSLFSCSYFFFLLIYSFILFIYSVAA | 44800 |
| NLCLLIAASLISIISLVNLLDFFLTWFGQFITIENLTLELILGYILYPYAWLL | 40000 |
| GMKRFLPLCFVMYTLWCTTISITWKLICFLSVTADSTPTIQWRLLCMLFWYLF | 33700 |
| EGKTRESKQKQGRERIGKGKGSREKGERREEEEGKGGKRRAGRKEGEWRSRGS | 32400 |
| MMRRWNELGLDGWVQNQHGLDSFAFLQLAFRLPICCIFPSKILVVFPLLLLSA | 52900 |
| GGGEAQKPRPAAERKKQEANGHAHHDHSQGNHHGHRHKHAKDAKKAEDGGARK | 32500 |
| SREGPAQSSCSSRVTEILKSSRDLKVGDVLVLGKDQRVPADVVLLKSFATEAS | 18600 |
| MRKLQVRSWSGLHVLSHFQIFDLLALIPGGWCNQILWLQGHHQWYIVILFVFT | 65800 |
| MSEEEGPAKSTSNKKRRLQGACDECRKRKVKCDSANMPGNQCSNCNVSHIECT | 42300 |

| Sequence | transcriptional activation domain activity |
| --- | --- |
| VPYFHGLQPNNHYIHRLVVIFLQFAPSFIILTISYEGLFYFGFCLCLFCWILL | 40300 |
| ESEEEVAAGSSANGKKQSGTRDSSKRSKKSDSKSEAKRSDKAEGAAEKTAPES | 18500 |
| AALFLSVQHKLFYLVMSLARFNLYFLSYSFLLLHAKRRWHWYAEIASIMLFWS | 50400 |
| RIWLRRLFDIARLLSVGVSNQWSLRMLLDRDAFTPLLIKWLNYYSLRIWTSAV | 68500 |
| QWSVMTYLYLAVRYFGIFLAMICSYWGGLFYIPETVSHVMFLLMQWSYSVYFC | 78000 |
| MRTLKLCSSCKHLGPEIYAFGWVCTNLSCQILFRHSGFHSLKGVTYSTSFLAQ | 57400 |
| MIILGRMGYSHVLLLPFFNSICFSFLFLPHSLCCLHFNSFYTYFLLLPHPHLF | 61900 |
| YILARYSIFFLYYLQFSRGYIPEYLNPTLPSYEEIESWLFLKTVWFQVLIWTV | 65500 |
| RPFLLNCKDINQFTNLIWERIRITNGTKMYWVWQHLRCVVMFFTLQPNQRILL | 83700 |
| MSPPTLREVNVSLPRKFDTPDEPWHRYVTIDLLHYVLGYTLFHPFVSCVLVLC | 35200 |
| MDEVGLSSMRYYHFSIFNVLIVFLLGTTFLNTIIDLVYTPTSILTLLANSLPQ | 51800 |
| FGAIFVELYFIMSSIWFSKIYYMFGFLFLCYGLMILTCATVTILMVYFLLCAE | 60500 |
| EGTGYITVSSGTRYVRLVGARGEEGEGVFGGGRRRRVEVVDFSRARVRAAQIG | 49000 |
| YLPYIVFPLTPQLSGPLCELYPSRGNLYDIFLHSILIMMQLPFILSVPFWLLF | 45500 |
| KQYCVRPNSGRIESGKEVEVQVLLQAMKNDPPADYKCRDKFLVQSVAITADRE | 53400 |
| VWVASKVEEDEASDYAAPEKQAKPKRQRGRPKKGGEDKSDVTSTAAAQESAAK | 24500 |
| DAESDNEEGAAGAADKKKKKKKKGASTAATSTPAEDEAAAAKGKKKPAAPLAA | 53700 |
| SDAAVELCVAAAPRNGESNKAVVQVLSHVSTHHLHLESLLTCLSQALKIPKMD | 42000 |
| LILNCYWIVLVAFTFNMEVEYCKIVSVVGKLSSKFLGRVQVFLLLFMLMLFLV | 50600 |
| MKTINILTTPPLHIFFSTPIVYSLFLLLNFFPIFFFFFFFFLYSLPFFFFIVA | 52100 |
| KIHIANMAQVAVFLLHKILYGIIPLFEISTCAYFPLLISLWHLNYLLFYTVMF | 63200 |

| Sequence | transcriptional activation domain activity |
| --- | --- |
| RFFIRVLSNLKIDRHNSMYCTLGRPITILNLILRGWYVVRKFIILLFSIVLLF | 54100 |
| EVGADGGAAADEEEEEESDEEGEDGGRKRKKPKVAAEKPERKASAAPADGEKK | < 6570 |
| ASDKQETSSQPEGGKEKEAAKEEKKPEPKKEEPKQESKPAPAPKQEKKPEPKK | 32600 |
| MPWGGWGYIFDVTRPFFFCFISCLFLFYICLLGFLVGFFCFSFFFDLFIFFMT | 24600 |
| IAKEIGKRLGFDENSEISYLAGIWSHCIAQQLIWNVAGGLLRVRGWLWKINLS | 79900 |
| GGTRRSSNQFGKRNTVALHPVINDFVGTVDSDSLVTAYKPFLASDFIGRGYDD | 28300 |
| IFGSSFFLLCLFNLFFFLFFLSFLSLLFSFFLFFLFFFLFDVFTTVILSSTYG | 51800 |
| MYYDKRSAMLQGLLLMGPRACGFHWSCILAILGLATLVSVDLVQLSYHLPRAV | 32700 |
| CWILGFISVFTFAYLVLTVLPNLYLNCPYSTPLSELSWRLSQHLLLLILHLIR | 69500 |
| NPLPPKNNGQAAYKETDGIRIKDRRVLVDVERGRTVKGWKPRRFGGGLGGRGY | 47500 |
| MIIVLLVKVVVFNLMCKCLMVNVGRCFGEIVSCTFYFWKHILFYYLRSVVTRL | 37700 |
| PSLLVLAAHTLAKHGVLAPMSTLITRFLELPFQIKRPQLYYNLLLHAISRFPS | 70100 |
| MRLFYSSFLLFSFLPFLPLLWFFNYLIAIVFPFFFFFFLSFVMGLISFRFLLF | 40200 |
| MELVLHCFYLGAIRKPGHTYDSWSSDTPFQLSMIGDSNLLIIWLWLLIPWRSF | 80500 |
| LWNSYLQSMDDTTGKNSGNYQQVDNDDNMSLLNLPILEETVSSGQDDKVEPDE | 54600 |
| MVFDCEFQHIQFSGSLLCLPLWDFFLRCIVCGHRSIFYIFYIIFVILFLHFLT | 30500 |
| GHSIPRLNFGDGYNLNNGRAYRGGTWASTLRYRKSNGLWYWIGCVNFWHTWIF | 75000 |
| EVKDKVWFLEGVTQVLPQDVDEYSGGGGMHMMLDFLGGGLPSMTTTNFSDFSL | 113000 |
| MHYIGGYLVLFYFFLFLFFFYFFFFSPFFYFLPFLFFLFFSIPYFFFFAPFVS | 39700 |
| DFFLGERDLLQETVSEEWLQFFDDGDLDQILDFLIFFKNPESLHPPSSLVDFI | 158000 |
